± gives the uncertainty stated by the source.
Experiment: self-splicing fitness, log relative to wild type (ln ratio); higher = more splicing; Tetrahymena group I intron in knt gene, E. coli kanamycin selection, DiMSum; sequences stand for … in CUCUCU…GGAGGGAAAAGUUAUCAGGCAUGCACCUGGUAGCUAGUCUUUAAACCAAUAGAUUGCAUCGGUUUAAAAGGCAAGACCGUCAAAUUGCGGGAAAGGGGUCAACAGCCGUUCAGUACCAAGUCUCAGGGGAAACUUUGAGAUGGCCUUGCAAAGGGUAUGGUAAUAAGCUGACGGACAUGGUCCUAACCACGCAGCCAAGUCCUAAGUCAACAGAUCUUCUGUUGAUAUGGAUGCAGUUCACAGACUAAAUGUCGGUCGGGGAAGAUGUAUUCUUCUCAUAAGAUAUAGUCGGACCUCUCCUUAAUGGGAGCUAGCGGAUGAAGUGAUGCAACACUGGAGCCGCUGGGAACUAAUUUGUAUGCGAAAGUAUAUUGAUUAGUUUUGGAGUACUCGUGGUCG
Method in brief: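 The eight P1ex-region nucleotides of an intron in the knt kanamycin-resistance gene on pET-22b(+) were all randomised and the library put into E. coli BL21(DE3). Six replicate transformations were grown overnight at 37°C or 30°C on LB agar with or without 25 μg/mL kanamycin, together with 100 μg/mL carbenicillin, 50 μM IPTG and 0.2% rhamnose. Colonies were pooled and amplicon-sequenced on an Illumina HiSeq 2500. Fitness from DiMSum is the error-weighted combination of wild-type-normalised replicate fold changes, kanamycin over none.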

Sequence | self-splicing fitness (ln) (30 °C) | self-splicing fitness (ln) (37 °C)
GUUUAGCAAUAUUACGACUA | -0.518 ± 0.18 | 0.0789 ± 0.15
GUUUAGCAAUAUUACGCCCA | -1.48 ± 0.19 | -0.953 ± 0.33
GUUUAGCAAUAUUACGCCGG | -2.37 ± 0.45 | 
GUUUAGCAAUAUUACGCCUC | 0.228 ± 0.22 | -0.7 ± 0.23
GUUUAGCAAUAUUACGCCUG | -2.62 ± 0.25 | -1.39 ± 0.26
GUUUAGCAAUAUUACGGAAA | -2.38 ± 0.37 | -2.07 ± 0.28
GUUUAGCAAUAUUACGGAUG | -3.5 ± 0.3 | -1.57 ± 0.22
GUUUAGCAAUAUUACGGCAU | 0.0778 ± 0.14 | -0.182 ± 0.14
GUUUAGCAAUAUUACGGCCA | -1.35 ± 0.14 | -0.725 ± 0.15
GUUUAGCAAUAUUACGGCUA | -1.45 ± 0.33 | -1.68 ± 0.31
GUUUAGCAAUAUUACGGGAC |  | -1.98 ± 0.39
GUUUAGCAAUAUUACGGGUC | -3.6 ± 0.47 | -1.73 ± 0.2
GUUUAGCAAUAUUACGGUAC | -1.22 ± 0.12 | -2.01 ± 0.15
GUUUAGCAAUAUUACGUCUG | -2.05 ± 0.18 | -1.84 ± 0.3
GUUUAGCAAUAUUACGUGAU | -0.892 ± 0.17 | -0.419 ± 0.12
GUUUAGCAAUAUUACGUUAC | -4.44 ± 0.28 | -2.33 ± 0.18
GUUUAGCAAUAUUACGUUAU | -2.88 ± 0.23 | -0.357 ± 0.16
UAAAAGCAAUAUUACGAAGU | -2.95 ± 0.29 | -2.23 ± 0.21
UAAAAGCAAUAUUACGAGUG | -0.615 ± 0.057 | 0.0674 ± 0.084
UAAAAGCAAUAUUACGCAUA | -1.44 ± 0.088 | -0.782 ± 0.1
UAAAAGCAAUAUUACGCCAG | -1.34 ± 0.12 | -0.458 ± 0.17
UAAAAGCAAUAUUACGCCCU | -0.622 ± 0.095 | 0.457 ± 0.15
UAAAAGCAAUAUUACGCCGG | -0.134 ± 0.11 | 0.0922 ± 0.14
UAAAAGCAAUAUUACGCUUA | -1.53 ± 0.11 | -1.03 ± 0.12
UAAAAGCAAUAUUACGGAGA | -2.31 ± 0.27 | -1.83 ± 0.27
UAAAAGCAAUAUUACGGAGC | -4.1 ± 0.25 | -3.36 ± 0.28

Sequence | self-splicing fitness (ln) (30 °C) | self-splicing fitness (ln) (37 °C)
UAAAAGCAAUAUUACGGCAU | -0.376 ± 0.091 | -0.235 ± 0.12
UAAAAGCAAUAUUACGGGAA | -2.63 ± 0.2 | -1.18 ± 0.12
UAAAAGCAAUAUUACGGUGU | -3.4 ± 0.13 | -2.83 ± 0.15
UAAAAGCAAUAUUACGUACC | -2.18 ± 0.25 | -0.361 ± 0.21
UAAAAGCAAUAUUACGUAUU | -2.24 ± 0.14 | -1.88 ± 0.19
UAAAAGCAAUAUUACGUCUA | -0.487 ± 0.068 | 0.337 ± 0.097
UAAAAGCAAUAUUACGUCUG | -0.0205 ± 0.058 | 0.201 ± 0.075
UAAAAGCAAUAUUACGUGCG | -0.348 ± 0.07 | -0.119 ± 0.09
UAAAAGCAAUAUUACGUGGA | -2.94 ± 0.13 | -1.52 ± 0.1
UAAAAGCAAUAUUACGUGGG | -3.67 ± 0.23 | -1.44 ± 0.13
UAAAAGCAAUAUUACGUUAC | -3.71 ± 0.22 | -2.78 ± 0.21
UAACAGCAAUAUUACGAAAU | -3.46 ± 0.14 | -2.52 ± 0.18
UAACAGCAAUAUUACGACGA | 0.245 ± 0.069 | 0.319 ± 0.083
UAACAGCAAUAUUACGAGAA | -2.22 ± 0.22 | -2.07 ± 0.23
UAACAGCAAUAUUACGAGAG | -3.21 ± 0.18 | -2.46 ± 0.13
UAACAGCAAUAUUACGAGGA | -3.13 ± 0.2 | -1.49 ± 0.14
UAACAGCAAUAUUACGAUAU | -2.28 ± 0.18 | -1.28 ± 0.2
UAACAGCAAUAUUACGCAUG | -1.43 ± 0.086 | -0.695 ± 0.099
UAACAGCAAUAUUACGCCCU | -1.18 ± 0.08 | 0.471 ± 0.12
UAACAGCAAUAUUACGCCUA | -0.308 ± 0.064 | 0.598 ± 0.083
UAACAGCAAUAUUACGCCUG | -0.264 ± 0.085 | 0.182 ± 0.11
UAACAGCAAUAUUACGCGAA | -1.9 ± 0.11 | -0.949 ± 0.11
UAACAGCAAUAUUACGCUAU | -2.86 ± 0.12 | -1.82 ± 0.11
UAACAGCAAUAUUACGCUGA | -3.33 ± 0.2 | -1.61 ± 0.1
UAACAGCAAUAUUACGGAAA | -2.91 ± 0.23 | -1.11 ± 0.14
UAACAGCAAUAUUACGGAGG | -3.85 ± 0.16 | -1.87 ± 0.091

Sequence | self-splicing fitness (ln) (30 °C) | self-splicing fitness (ln) (37 °C)
UAACAGCAAUAUUACGGCAG | -0.752 ± 0.077 | -0.814 ± 0.084
UAACAGCAAUAUUACGGGCA | -0.826 ± 0.085 | -0.324 ± 0.078
UAACAGCAAUAUUACGGGGA | -2.36 ± 0.15 | -2.1 ± 0.097
UAACAGCAAUAUUACGGUGU | -2.93 ± 0.11 | -2.01 ± 0.12
UAACAGCAAUAUUACGUCAC | -2.97 ± 0.15 | -1.82 ± 0.16
UAACAGCAAUAUUACGUCAU | -3.81 ± 0.16 | -1.74 ± 0.15
UAACAGCAAUAUUACGUCCA | -0.357 ± 0.091 | -0.0151 ± 0.12
UAACAGCAAUAUUACGUUGA | -2.95 ± 0.14 | -1.34 ± 0.1
UAACAGCAAUAUUACGUUUA | -0.893 ± 0.063 | -0.563 ± 0.071
UAACAGCAAUAUUACGUUUC | -4.16 ± 0.26 | -2.44 ± 0.23
UAAGAGCAAUAUUACGAAUG | -2.32 ± 0.17 | -1.52 ± 0.25
UAAGAGCAAUAUUACGACUG | -2 ± 0.14 | -0.767 ± 0.15
UAAGAGCAAUAUUACGAGAU | -3.76 ± 0.33 | -2.32 ± 0.31
UAAGAGCAAUAUUACGAGUC | -3.17 ± 0.49 | 
UAAGAGCAAUAUUACGAUAC | -3.55 ± 0.26 | -3.09 ± 0.4
UAAGAGCAAUAUUACGCAUU | -2.87 ± 0.22 | -2.32 ± 0.26
UAAGAGCAAUAUUACGCUCA | -2.37 ± 0.23 | -1.54 ± 0.18
UAAGAGCAAUAUUACGGAUG | -2.57 ± 0.35 | -2.59 ± 0.49
UAAGAGCAAUAUUACGGCGG | -2.73 ± 0.22 | -1.62 ± 0.22
UAAGAGCAAUAUUACGGGUG | -3.49 ± 0.18 | -1.06 ± 0.13
UAAGAGCAAUAUUACGGUAC |  | -2.25 ± 0.41
UAAGAGCAAUAUUACGGUAU | -3.87 ± 0.23 | -2.27 ± 0.18
UAAGAGCAAUAUUACGGUUU | -3.48 ± 0.24 | -1.85 ± 0.23
UAAGAGCAAUAUUACGUCCG | -3.27 ± 0.41 | 
UAAGAGCAAUAUUACGUGCC | -3.13 ± 0.15 | -3.48 ± 0.34
